Experimental data published in patent US20200140562A1 (Innovent, published 2020).

How the values were obtained:
[1] = biological target: T1, human OX40 on cells (CHO-hOX40, 293HEK-hOX40, Jurkat-hOX40, activated primary CD4+ T cells) (human, UniProt P43489 29-277); assay: flow cytometry, CHO-hOX40, 200 nM
T1 construct: whole, on cells; The cell type is told in each assay; also called CHO-OX40
T1 sequence (looked up): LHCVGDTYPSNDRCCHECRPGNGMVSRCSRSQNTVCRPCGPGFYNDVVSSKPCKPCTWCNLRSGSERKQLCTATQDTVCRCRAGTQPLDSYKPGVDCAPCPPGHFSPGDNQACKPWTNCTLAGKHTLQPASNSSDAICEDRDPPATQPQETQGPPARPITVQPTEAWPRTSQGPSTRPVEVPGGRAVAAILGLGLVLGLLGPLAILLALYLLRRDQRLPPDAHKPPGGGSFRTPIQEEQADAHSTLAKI

[2] = biological target: T1, human OX40 on cells (CHO-hOX40, …); assay: flow cytometry, CHO-hOX40, 0.048828125 nM
[3] = biological target: T1, human OX40 on cells (CHO-hOX40, …); assay: flow cytometry, CHO-hOX40, 0.024414063 nM
[4] = biological target: T1, human OX40 on cells (CHO-hOX40, …); assay: flow cytometry, CHO-hOX40, 0.09765625 nM
[5] = biological target: T1, human OX40 on cells (CHO-hOX40, …); assay: flow cytometry, CHO-hOX40, 3.125 nM
[6] = biological target: T1, human OX40 on cells (CHO-hOX40, …); assay: flow cytometry, CHO-hOX40, 0.1953125 nM
[7] = biological target: T1, human OX40 on cells (CHO-hOX40, …); assay: flow cytometry, CHO-hOX40, 100 nM
[8] = biological target: T1, human OX40 on cells (CHO-hOX40, …); assay: flow cytometry, CHO-hOX40, 0.78125 nM
[9] = biological target: T1, human OX40 on cells (CHO-hOX40, …); assay: flow cytometry, CHO-hOX40, 12.5 nM
[10] = biological target: T1, human OX40 on cells (CHO-hOX40, …); assay: flow cytometry, CHO-hOX40
[11] = biological target: T1, human OX40 on cells (CHO-hOX40, …); assay: flow cytometry, CHO-hOX40, 0.024414063 nM; remark: listed apart in the source
[12] = biological target: T1, human OX40 on cells (CHO-hOX40, …); assay: flow cytometry, CHO-hOX40, 200 nM; remark: listed apart in the source
[13] = biological target: T1, human OX40 on cells (CHO-hOX40, …); assay: flow cytometry, CHO-hOX40, 0.09765625 nM; remark: listed apart in the source
[14] = biological target: T1, human OX40 on cells (CHO-hOX40, …); assay: flow cytometry, CHO-hOX40, 1.5625 nM
[15] = biological target: T1, human OX40 on cells (CHO-hOX40, …); assay: flow cytometry, CHO-hOX40, 0.1953125 nM; remark: listed apart in the source
[16] = biological target: T1, human OX40 on cells (CHO-hOX40, …); assay: flow cytometry, CHO-hOX40, 6.25 nM
[17] = biological target: T1, human OX40 on cells (CHO-hOX40, …); assay: cell-based or functional assay
[18] = biological target: T1, human OX40 on cells (CHO-hOX40, …); assay: flow cytometry, CHO-hOX40, 12.5 nM; remark: listed apart in the source
[19] = biological target: T1, human OX40 on cells (CHO-hOX40, …); assay: flow cytometry, CHO-hOX40, 50 nM
[20] = biological target: T1, human OX40 on cells (CHO-hOX40, …); assay: flow cytometry, CHO-hOX40, 0.390625 nM

MFI [1]: 2.08e+06 MFI
MFI [2]: 8350 MFI
MFI [3]: 12800 MFI
MFI [4]: 14500 MFI
MFI [5]: 932000 MFI
MFI [6]: 24800 MFI
MFI [7]: 2.57e+06 MFI
MFI [8]: 86000 MFI
MFI [9]: 1.99e+06 MFI
EC50 [10]: 12.4 nM
MFI [11]: 7970 MFI
MFI [12]: 2.68e+06 MFI
MFI [13]: 35200 MFI
MFI [14]: 172000 MFI
MFI [15]: 83200 MFI
MFI [16]: 1.48e+06 MFI
NFkB-Luc fold change in Jurkat stimulated by PHA+ anti-CD28 [17]: 4.82 fold over IgG4 control
NFkB-Luc fold change in Jurkat stimulated by anti-CD3+ anti-CD28 [17]: 4.05 fold over IgG4 control
MFI [18]: 1.11e+06 MFI
MFI [19]: 2.72e+06 MFI
MFI [20]: 119000 MFI
B1: OX40L (control reagent; recombinant OX40L, Acro Biosystems) (ligand, UniProt P23510 51-183, looked up)
chain: QVSHRYPRIQSIKVQFTEYKKEKGFILTSQKEDEIMKVQNNSVIINCDGFYLISLKGYFSQEVNISLHYQKDEEPLFQLKKVRSVNSLMVASLTYKDKVYLNVTTDNTSLDDFHVNGGELILIHQNPGEFCVL
notes: may be the same reagent as OX40L-hFc
